Laboratory results published in publication PMC11429640.

Biological target: high-stability mutant of the MMP-9 catalytic domain (MMP9CAT*) lacking the fibronectin-like domain (human) (UniProt P14780)
Experiment: enzyme activity inhibition assay (fluorogenic substrate, fit to the Morrison equation); apparent Ki (Ki^app); varying concentrations of N-TIMP2 incubated with 0.26 nM MMP-9CAT* for 60 min at 37 °C in 50 mM Tris-HCl, 0.15 M NaCl, 10 mM CaCl2, 0.02% Brij-35 pH 7.5; then 7.5 µM fluorogenic substrate; at least three assays for each protein

Sequence of UniProt P14780 (P14780 other isoform, or with tags, fused parts or gaps mutant): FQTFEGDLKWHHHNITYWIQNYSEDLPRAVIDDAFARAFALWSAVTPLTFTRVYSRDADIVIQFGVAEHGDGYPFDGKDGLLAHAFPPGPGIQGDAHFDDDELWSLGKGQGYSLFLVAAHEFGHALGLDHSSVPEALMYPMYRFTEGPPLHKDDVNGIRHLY

- Ki: 0.32 nM
Substance: WT N-TIMP2 containing internal FLAG-tag, c-myc-tag, and His-tag (domain or fragment)
